# Experiments:
# [1] = target: GCN4-p2L variant (trimeric variant of GCN4 peptide with N-terminal NTA and C-terminal His2), assembled into hexagonal 3D crystals with Zn2+; experiment: derived from the EDTA dissolution data and the hourglass volume (about 50%)
# [2] = target: GCN4-p2L variant (trimeric variant of GCN4 peptide with N-terminal NTA and C-terminal His2), assembled into hexagonal 3D crystals with Zn2+; experiment: crystals dissolved with EDTA; peptide by UPLC, protein by fluorescence spectroscopy
substance,measurement,setting,value
Enhanced green fluorescent protein with an N-terminal His6-tag (EGFP),coiled-coils for each protein guest within the hourglass section (coiled-coils per protein),[1],30 to 35
same,coiled-coil units for each protein guest (coiled-coil units per protein),[2],60 to 70
same,ratio of peptide to protein cargo in the crystals (peptide : protein),[2],200
